This note sets out measurements from paper PMC8053098.

This assay concerns the target Escherichia coli MnmA, as-purified (aerobically purified, tag removed) (Escherichia coli) (UniProt P25745). Description: SEC-MALS.

In turn, “Escherichia coli MnmA, as-purified (aerobically purified, tag removed) (from UniProt P25745 1-368) (enzyme)” returned a stoichiometry N of 2.
